In article PMC3536884:

Target: C9-tagged CCR5 (human) (UniProt P51681)
Experiment: SPR

Sequence of UniProt P51681 (P51681 whole entry): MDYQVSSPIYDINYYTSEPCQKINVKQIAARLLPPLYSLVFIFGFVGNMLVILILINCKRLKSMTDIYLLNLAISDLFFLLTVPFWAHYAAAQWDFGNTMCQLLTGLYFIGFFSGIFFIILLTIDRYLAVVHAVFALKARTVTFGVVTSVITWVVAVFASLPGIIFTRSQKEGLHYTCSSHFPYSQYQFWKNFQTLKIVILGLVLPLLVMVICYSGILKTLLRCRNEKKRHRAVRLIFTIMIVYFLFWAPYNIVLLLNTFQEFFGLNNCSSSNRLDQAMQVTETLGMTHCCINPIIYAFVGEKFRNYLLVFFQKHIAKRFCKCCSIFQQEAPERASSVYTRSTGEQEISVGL

## LukE (leukotoxin ED subunit E), His-tagged (natural protein)
  Kd: 39.6 nM
